In patent US20260062487A1 (GRITSTONE BIO, published 2026):

Columns and labels:
[1] = target: T1, HLA-PEPTIDE target A*01:01_… (G2) on cells (human); assay: flow cytometry, A375 cells engineered to express the G2 peptide
T1 construct: whole, on cells; also recovered from cell lysates in the IP-MS experiment; also called G2 pHLA; G2 target
Experimental: Tumor cells engineered to express target peptide were harvested, washed in PBS, and stained with eBioscience Fixable Viability Dye eFluor 450 for 15 minutes at room temperature. Following another wash in PBS+1-2% FBS, cells were resuspended with the indicated molecules at varying concentrations and incubated for 1 hour at 4° C. After another wash, PE-conjugated goat anti-human IgG secondary antibody (Jackson ImmunoResearch) was added at 1:100 to 1:200 for 30 minutes at 4° C. After washing in PBS+1-2% FBS, cells were resuspended in PBS+1-2% FBS and analyzed by flow cytometry. Flow cytometric analysis was performed on the Attune NxT Flow Cytometer (ThermoFisher) using the Attune NxT Software. Data was analyzed using FlowJo.

[2] = target: T2, biotinylated refolded G2-pHLA (A*01:01/b2m/…) (human, biotinylated at the C-terminal AviTag); assay: BLI (Octet), biotinylated pHLA on streptavidin sensor, bivalent antibody as analyte (apparent affinity)
T2 construct: Soluble complex caught on streptavidin sensors or MSD plates; also called G2-peptide A*01:01/b2m complex; WT
Text: (§1) The biosensors were then dipped in assay buffer for a baseline. […] The biosensors were finally dipped into wells containing assay buffer to measure the dissociation rate for another 50 seconds. Referencing was completed by having a biosensor with no immobilized ligand dipped into analyte. Kinetic data was processed with Octet™ software using a 1:1 kinetic model with errors within 10%, X² below 3, and R² above 0.9.

[3] = target: T2, biotinylated refolded G2-pHLA …; assay: BLI (ForteBio Octet HTX), biotinylated G2-pHLA captured on streptavidin SAX biosensor, antibody in solution, 1:1 kinetic model
Text: as §1

[4] = target: T2, biotinylated refolded G2-pHLA …; assay: BLI (ForteBio Octet HTX), biotinylated G2-pHLA captured on streptavidin SAX biosensor, antibody in solution, 1:1 Fit
Text: as §1

[5] = target: T2, biotinylated refolded G2-pHLA …; assay: BLI (ForteBio Octet HTX), biotinylated G2-pHLA captured on streptavidin SAX biosensor, antibody in solution, 1:2 Fit
[6] = target: biotinylated G5-pHLA (HLA-B*35:01 with …) (human); assay: BLI (ForteBio Octet HTX), biotinylated G5-pHLA captured on streptavidin SAX biosensor, antibody in solution, 1:1 Fit
Text: as §1

[7] = target: biotinylated G5-pHLA (HLA-B*35:01 with …) (human); assay: BLI (ForteBio Octet HTX), biotinylated G5-pHLA captured on streptavidin SAX biosensor, antibody in solution, 1:2 Fit
CD3 on CD3+ Jurkat cells = target: T3, CD3 on CD3+ Jurkat cells (human, UniProt P07766 23-207); assay: flow cytometry, anti IgG PE, CD3+ Jurkat cells
T3 construct: whole, on cells
Experimental: Increasing concentrations of the antibodies were incubated with CD3(+) and CD9(−) Jurkat cells. Binding was determined by flow cytometery using an anti IgG-PE antibody for detection.

[8] = target: T1, HLA-PEPTIDE target A*01:01_… (G2) on …; assay: flow cytometry, anti IgG PE, A375 9mer cells (1e6 copies per cell)
Experimental: A375 transduced with luciferase alone served as the negative control. […] Binding was determined by flow cytometery using an anti IgG-PE antibody for detection.

T3 sequence (P07766 23-207): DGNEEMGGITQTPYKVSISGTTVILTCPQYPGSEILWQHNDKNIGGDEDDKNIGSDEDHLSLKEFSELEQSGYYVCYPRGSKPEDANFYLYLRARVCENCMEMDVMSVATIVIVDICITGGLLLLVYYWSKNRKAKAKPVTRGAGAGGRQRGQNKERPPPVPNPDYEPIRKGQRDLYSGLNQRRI

B1: Format 4-G2(1H11) hOKT3a with engineered VH44/VL100 disulfide bond (DSB) (bispecific antibody, human IgG1, kappa, N297Q)
chain: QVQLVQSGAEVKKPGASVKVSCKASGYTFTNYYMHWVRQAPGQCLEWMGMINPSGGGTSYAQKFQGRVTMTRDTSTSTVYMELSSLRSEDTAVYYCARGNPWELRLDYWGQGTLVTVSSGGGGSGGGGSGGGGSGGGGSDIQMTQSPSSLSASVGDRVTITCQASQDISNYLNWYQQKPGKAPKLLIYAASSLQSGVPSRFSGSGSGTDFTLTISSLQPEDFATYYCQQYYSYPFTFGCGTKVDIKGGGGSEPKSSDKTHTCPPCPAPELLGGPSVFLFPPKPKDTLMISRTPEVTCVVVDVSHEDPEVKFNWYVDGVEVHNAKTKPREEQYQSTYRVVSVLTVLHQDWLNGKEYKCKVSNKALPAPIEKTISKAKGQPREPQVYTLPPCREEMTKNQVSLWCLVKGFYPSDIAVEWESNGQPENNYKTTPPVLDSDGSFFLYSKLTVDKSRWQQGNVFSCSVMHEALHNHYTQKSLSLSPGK
heavy: QVQLVQSGAEVKKPGASVKVSCKASGYTFTNYYMHWVRQAPGQCLEWMGMINPSGGGTSYAQKFQGRVTMTRDTSTSTVYMELSSLRSEDTAVYYCARGNPWELRLDYWGQGTLVTVSSGGGGSGGGGSGGGGSGGGGSDIQMTQSPSSLSASVGDRVTITCQASQDISNYLNWYQQKPGKAPKLLIYAASSLQSGVPSRFSGSGSGTDFTLTISSLQPEDFATYYCQQYYSYPFTFGCGTKVDIKGGGGSGGGGSQVQLVQSGAEVKKPGASVKVSCKASGYTFTRYTMHWVRQAPGQGLEWMGYINPSRGYTNYNQKFKDRVTLTTDKSSSTAYMELSSLRSEDTAVYYCARYYDDHYSLDYWGQGTLVTVSSASTKGPSVFPLAPSSKSTSGGTAALGCLVKDYFPEPVTVSWNSGALTSGVHTFPAVLQSSGLYSLSSVVTVPSSSLGTQTYICNVNHKPSNTKVDKRVEPKSCDKTHTCPPCPAPELLGGPSVFLFPPKPKDTLMISRTPEVTCVVVDVSHEDPEVKFNWYVDGVEVHNAKTKPREEQYQSTYRVVSVLTVLHQDWLNGKEYKCKVSNKALPAPIEKTISKAKGQPREPQVCTLPPSREEMTKNQVSLSCAVKGFYPSDIAVEWESNGQPENNYKTTPPVLDSDGSFFLVSKLTVDKSRWQQGNVFSCSVMHEALHNRFTQKSLSLSPGK
light: DIQMTQSPSSLSASVGDRVTITCSASSSVSYMNWYQQKPGKAPKRLIYDTSKLASGVPSRFSGSGSGTDFTLTISSLQPEDFATYYCQQWSSNPFTFGQGTKLEIKRTVAAPSVFIFPPSDEQLKSGTASVVCLLNNFYPREAKVQWKVDNALQSGNSQESVTEQDSKDSTYSLSSTLTLSKADYEKHKVYACEVTHQGLSSPVTKSFNRGEC
notes: also called 4-G2(1H11)-H44/L100 hOKT3a-TM; Format 4 G2(1H11)-hOKT3_DSBH44/L100
B1 was tested, and the EC50 [1] was 1750 nM, the Kd [2] was 35.1 nM and the koff [3] was 0.025 s⁻¹.

B2: Format 4-G2(1H11) hOKT3a with shortened 10 amino acid L1 and L2 linkers (bispecific antibody, human IgG1, kappa, N297Q)
chain: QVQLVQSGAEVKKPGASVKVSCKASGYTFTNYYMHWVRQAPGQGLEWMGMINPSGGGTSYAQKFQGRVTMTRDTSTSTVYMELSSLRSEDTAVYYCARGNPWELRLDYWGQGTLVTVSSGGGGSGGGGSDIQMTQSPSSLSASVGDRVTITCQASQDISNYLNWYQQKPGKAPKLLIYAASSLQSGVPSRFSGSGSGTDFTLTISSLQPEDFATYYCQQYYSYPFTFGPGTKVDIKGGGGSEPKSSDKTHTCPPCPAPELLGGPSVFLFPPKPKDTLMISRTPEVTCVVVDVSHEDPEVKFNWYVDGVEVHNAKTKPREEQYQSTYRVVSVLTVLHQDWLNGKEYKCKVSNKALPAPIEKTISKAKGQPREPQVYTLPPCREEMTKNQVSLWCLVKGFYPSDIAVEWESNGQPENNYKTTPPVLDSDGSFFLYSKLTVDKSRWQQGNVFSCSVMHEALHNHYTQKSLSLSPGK
heavy: QVQLVQSGAEVKKPGASVKVSCKASGYTFTNYYMHWVRQAPGQGLEWMGMINPSGGGTSYAQKFQGRVTMTRDTSTSTVYMELSSLRSEDTAVYYCARGNPWELRLDYWGQGTLVTVSSGGGGSGGGGSDIQMTQSPSSLSASVGDRVTITCQASQDISNYLNWYQQKPGKAPKLLIYAASSLQSGVPSRFSGSGSGTDFTLTISSLQPEDFATYYCQQYYSYPFTFGPGTKVDIKGGGGSGGGGSQVQLVQSGAEVKKPGASVKVSCKASGYTFTRYTMHWVRQAPGQGLEWMGYINPSRGYTNYNQKFKDRVTLTTDKSSSTAYMELSSLRSEDTAVYYCARYYDDHYSLDYWGQGTLVTVSSASTKGPSVFPLAPSSKSTSGGTAALGCLVKDYFPEPVTVSWNSGALTSGVHTFPAVLQSSGLYSLSSVVTVPSSSLGTQTYICNVNHKPSNTKVDKRVEPKSCDKTHTCPPCPAPELLGGPSVFLFPPKPKDTLMISRTPEVTCVVVDVSHEDPEVKFNWYVDGVEVHNAKTKPREEQYQSTYRVVSVLTVLHQDWLNGKEYKCKVSNKALPAPIEKTISKAKGQPREPQVCTLPPSREEMTKNQVSLSCAVKGFYPSDIAVEWESNGQPENNYKTTPPVLDSDGSFFLVSKLTVDKSRWQQGNVFSCSVMHEALHNRFTQKSLSLSPGK
light: DIQMTQSPSSLSASVGDRVTITCSASSSVSYMNWYQQKPGKAPKRLIYDTSKLASGVPSRFSGSGSGTDFTLTISSLQPEDFATYYCQQWSSNPFTFGQGTKLEIKRTVAAPSVFIFPPSDEQLKSGTASVVCLLNNFYPREAKVQWKVDNALQSGNSQESVTEQDSKDSTYSLSSTLTLSKADYEKHKVYACEVTHQGLSSPVTKSFNRGEC
notes: also called 4-G2(1H11)-10AAL hOKT3a; G2(1H11)_10AAL
B2 showed a Kd [4] of 6.35 nM, a koff [4] of 0.00608 s⁻¹ and a kon [4] of 958000 M⁻¹ s⁻¹. The Kd [5] was 301 nM, the koff [5] was 0.0746 s⁻¹ and the kon [5] was 248000 M⁻¹ s⁻¹.

B3: 41-G5(1C12) hOKT3a (Format 4-G5(1C12) hOKT3a with shortened 10 amino acid L1 and L2 linkers) (bispecific antibody, human IgG1, kappa, N297Q)
chain: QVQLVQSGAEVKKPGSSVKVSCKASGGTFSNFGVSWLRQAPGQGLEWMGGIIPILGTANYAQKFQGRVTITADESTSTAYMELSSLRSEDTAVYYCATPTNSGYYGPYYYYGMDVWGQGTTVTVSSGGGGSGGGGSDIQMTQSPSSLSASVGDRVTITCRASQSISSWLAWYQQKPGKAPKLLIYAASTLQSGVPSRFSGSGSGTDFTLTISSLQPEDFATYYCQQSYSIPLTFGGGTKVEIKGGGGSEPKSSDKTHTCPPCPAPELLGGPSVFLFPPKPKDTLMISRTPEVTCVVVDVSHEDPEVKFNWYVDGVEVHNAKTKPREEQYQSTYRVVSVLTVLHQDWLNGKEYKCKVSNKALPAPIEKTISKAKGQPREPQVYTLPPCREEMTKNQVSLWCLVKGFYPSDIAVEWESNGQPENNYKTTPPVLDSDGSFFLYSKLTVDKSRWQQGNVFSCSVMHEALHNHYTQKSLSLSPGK
heavy: QVQLVQSGAEVKKPGSSVKVSCKASGGTFSNFGVSWLRQAPGQGLEWMGGIIPILGTANYAQKFQGRVTITADESTSTAYMELSSLRSEDTAVYYCATPTNSGYYGPYYYYGMDVWGQGTTVTVSSGGGGSGGGGSDIQMTQSPSSLSASVGDRVTITCRASQSISSWLAWYQQKPGKAPKLLIYAASTLQSGVPSRFSGSGSGTDFTLTISSLQPEDFATYYCQQSYSIPLTFGGGTKVEIKGGGGSGGGGSQVQLVQSGAEVKKPGASVKVSCKASGYTFTRYTMHWVRQAPGQGLEWMGYINPSRGYTNYNQKFKDRVTLTTDKSSSTAYMELSSLRSEDTAVYYCARYYDDHYSLDYWGQGTLVTVSSASTKGPSVFPLAPSSKSTSGGTAALGCLVKDYFPEPVTVSWNSGALTSGVHTFPAVLQSSGLYSLSSVVTVPSSSLGTQTYICNVNHKPSNTKVDKRVEPKSCDKTHTCPPCPAPELLGGPSVFLFPPKPKDTLMISRTPEVTCVVVDVSHEDPEVKFNWYVDGVEVHNAKTKPREEQYQSTYRVVSVLTVLHQDWLNGKEYKCKVSNKALPAPIEKTISKAKGQPREPQVCTLPPSREEMTKNQVSLSCAVKGFYPSDIAVEWESNGQPENNYKTTPPVLDSDGSFFLVSKLTVDKSRWQQGNVFSCSVMHEALHNRFTQKSLSLSPGK
light: DIQMTQSPSSLSASVGDRVTITCSASSSVSYMNWYQQKPGKAPKRLIYDTSKLASGVPSRFSGSGSGTDFTLTISSLQPEDFATYYCQQWSSNPFTFGQGTKLEIKRTVAAPSVFIFPPSDEQLKSGTASVVCLLNNFYPREAKVQWKVDNALQSGNSQESVTEQDSKDSTYSLSSTLTLSKADYEKHKVYACEVTHQGLSSPVTKSFNRGEC
notes: also called 4-G5(1C12)_10AAL hOKT3a; G5(1C12)_10AAL
B3 was tested, and the Kd [6] was 2.2 nM, the koff [6] was 0.00279 s⁻¹ and the kon [6] was 1.27e+06 M⁻¹ s⁻¹. For the same binder, the Kd [7] was 16.1 nM, the koff [7] was 0.00652 s⁻¹ and the kon [7] was 405000 M⁻¹ s⁻¹.

B4: 41-E07 hSP34x (Format 41 31E07-CD3 bispecific antibody) (bispecific antibody)
chain: QVQLVQSGAEVKKPGASVKVSCKASGFTFTNYLIHWVRQAPGQGLEWMGWINPNSGGTNYAQRLQGRVTMTRDTSTSTVYMELSSLRSEDTAVYYCARDYGAGNDYWGQGTLVTVSSGGGGSGGGGSDIQMTQSPSSLSASVGDRVTITCRASQEIRRWLAWYQQKPGKAPKLLIYAASNLQSGVPSRFSGSGSGTDFTLTISSLQPEDFATYYCQQSYSTPYTFGQGTKLEIKGGGGSEPKSSDKTHTCPPCPAPEFEGGPSVFLFPPKPKDTLMISRTPEVTCVVVDVSHEDPEVKFNWYVDGVEVHNAKTKPREEQYNSTYRVVSVLTVLHQDWLNGKEYKCKVSNKALPASIEKTISKAKGQPREPQVYTLPPCREEMTKNQVSLWCLVKGFYPSDIAVEWESNGQPENNYKTTPPVLDSDGSFFLYSKLTVDKSRWQQGNVFSCSVMHEALHNHYTQKSLSLSPGK
heavy: QVQLVQSGAEVKKPGASVKVSCKASGFTFTNYLIHWVRQAPGQGLEWMGWINPNSGGTNYAQRLQGRVTMTRDTSTSTVYMELSSLRSEDTAVYYCARDYGAGNDYWGQGTLVTVSSGGGGSGGGGSDIQMTQSPSSLSASVGDRVTITCRASQEIRRWLAWYQQKPGKAPKLLIYAASNLQSGVPSRFSGSGSGTDFTLTISSLQPEDFATYYCQQSYSTPYTFGQGTKLEIKGGGGSGGGGSEVQLVESGGGLVQPGGSLRLSCAASGFTFSTYAMNWVRQAPGKGLEWVGRIRSKYNNYATYYADSVKGRFTISRDDSKNTLYLQMNSLRAEDTAVYYCVRHGNFGDSYVSWFAYWGQGTLVTVSSASTKGPSVFPLAPSSKSTSGGTAALGCLVKDYFPEPVTVSWNSGALTSGVHTFPAVLQSSGLYSLSSVVTVPSSSLGTQTYICNVNHKPSNTKVDKRVEPKSCDKTHTCPPCPAPEFEGGPSVFLFPPKPKDTLMISRTPEVTCVVVDVSHEDPEVKFNWYVDGVEVHNAKTKPREEQYNSTYRVVSVLTVLHQDWLNGKEYKCKVSNKALPASIEKTISKAKGQPREPQVCTLPPSREEMTKNQVSLSCAVKGFYPSDIAVEWESNGQPENNYKTTPPVLDSDGSFFLVSKLTVDKSRWQQGNVFSCSVMHEALHNRFTQKSLSLSPGK
light: QAVVTQEPSLTVSPGGTVTLTCGSSTGAVTTSNYANWVQQKPGKSPRGLIGGTNKRAPGVPARFSGSLLGGKAALTISGAQPEDEADYYCALWYSNHWVFGGGTKLTVLRTVAAPSVFIFPPSDEQLKSGTASVVCLLNNFYPREAKVQWKVDNALQSGNSQESVTEQDSKDSTYSLSSTLTLSKADYEKHKVYACEVTHQGLSSPVTKSFNRGEC
notes: also called 41-31E07-hSP34x
In the case of B4, the “EC50 (read off the curve)” value (CD3 on CD3+ Jurkat cells) is reported as about 6 nM and the “EC50 (read off the curve)” value [8] is reported as about 2 nM.
